Assay results as given in patent US20210403541A1.

Biological target: PD17(p)PS413 (24AWF) (human)
Assay: peptide-coated ELISA (1 µg/ml peptide 24AWF coat, anti-human IgG-HRP, ABTS, OD405)

- EC50 (read off the curve): 0.05 µg/mL
B1: V5-AFM-hIgG4-S228P (antibody, V domains shown)
VH: EVQLVESGGGLVQPGGSLRLSCAASGFTFSSFALNWVRQAPGKGLEWVGHIRSKTNNYVTFYAASVKGRFTVSRDDSQNTAYLQMNSLKTEDTATYYCVRRGPRDSWFGYWGQGTLVTVSS
VL: DIVMTQSPLSLPVTLGEPASISCRSSQKIVHRNANTYLEWYLQKPGQSPQLLIYTVSNRFSGVPDRFSGSGSGTDFTLKISRVEAEDLGVYYCFQGSYLPLTFGGGTKVEIK
